Results: patent US20080044360A1 (COLLAGEN MEDICAL, published 2008)
Bridge positions count the residues as written; N and C are the ends. Square brackets hold non-standard residues; d marks the D form. Primed or numbered codes have the meaning given here. Side chains are listed from the residue outwards. Ends that are not written are not given here. * marks the point of attachment. Bpa = N[C@@H](Cc1ccc(C(=O)c2ccccc2)cc1)C(=O)O; Tyr(3-Cl) = N[C@@H](Cc1ccc(O)c(Cl)c1)C(=O)O; Bip = N[C@@H](Cc1ccc(-c2ccccc2)cc1)C(=O)O; Gd^T(3) = GdDTPA attached via thiourea; 1Nal = N[C@@H](Cc1cccc2ccccc12)C(=O)O; 2Nal = N[C@@H](Cc1ccc2ccccc2c1)C(=O)O; Bta = N[C@@H](Cc1csc2ccccc12)C(=O)O; Hyp = O=C(O)[C@@H]1C[C@@H](O)CN1; hPhe = N[C@@H](CCc1ccccc1)C(=O)O; 2Pal = N[C@@H](Cc1ccccn1)C(=O)O; 4Pal = N[C@@H](Cc1ccncc1)C(=O)O; Cha = N[C@@H](CC1CCCCC1)C(=O)O; Pen = CC(C)(S)[C@H](N)C(=O)O; Gd^G = not defined here; Gd^T = not defined here; Gd^T″ = GdDTPA-thiourea; Cbz = O=C(OCc1ccccc1)*; Dap = NC[C@H](N)C(=O)O; AEEA = NCCOCCOCC(=O)O; Aib = CC(C)(N)C(=O)O

Legend:
[1] = biological target: T1, human collagen type I, acid soluble, extracted from placenta (Sigma C7774) (human, UniProt P02452 162-1218; P08123 80-1119); assay: dried collagen assay
T1 construct: tissue extract, gelled and dried in wells; also called dried human collagen; h-Collagen
T1 sequence (P02452 162-1218 limits assumed, chain 1 of 2): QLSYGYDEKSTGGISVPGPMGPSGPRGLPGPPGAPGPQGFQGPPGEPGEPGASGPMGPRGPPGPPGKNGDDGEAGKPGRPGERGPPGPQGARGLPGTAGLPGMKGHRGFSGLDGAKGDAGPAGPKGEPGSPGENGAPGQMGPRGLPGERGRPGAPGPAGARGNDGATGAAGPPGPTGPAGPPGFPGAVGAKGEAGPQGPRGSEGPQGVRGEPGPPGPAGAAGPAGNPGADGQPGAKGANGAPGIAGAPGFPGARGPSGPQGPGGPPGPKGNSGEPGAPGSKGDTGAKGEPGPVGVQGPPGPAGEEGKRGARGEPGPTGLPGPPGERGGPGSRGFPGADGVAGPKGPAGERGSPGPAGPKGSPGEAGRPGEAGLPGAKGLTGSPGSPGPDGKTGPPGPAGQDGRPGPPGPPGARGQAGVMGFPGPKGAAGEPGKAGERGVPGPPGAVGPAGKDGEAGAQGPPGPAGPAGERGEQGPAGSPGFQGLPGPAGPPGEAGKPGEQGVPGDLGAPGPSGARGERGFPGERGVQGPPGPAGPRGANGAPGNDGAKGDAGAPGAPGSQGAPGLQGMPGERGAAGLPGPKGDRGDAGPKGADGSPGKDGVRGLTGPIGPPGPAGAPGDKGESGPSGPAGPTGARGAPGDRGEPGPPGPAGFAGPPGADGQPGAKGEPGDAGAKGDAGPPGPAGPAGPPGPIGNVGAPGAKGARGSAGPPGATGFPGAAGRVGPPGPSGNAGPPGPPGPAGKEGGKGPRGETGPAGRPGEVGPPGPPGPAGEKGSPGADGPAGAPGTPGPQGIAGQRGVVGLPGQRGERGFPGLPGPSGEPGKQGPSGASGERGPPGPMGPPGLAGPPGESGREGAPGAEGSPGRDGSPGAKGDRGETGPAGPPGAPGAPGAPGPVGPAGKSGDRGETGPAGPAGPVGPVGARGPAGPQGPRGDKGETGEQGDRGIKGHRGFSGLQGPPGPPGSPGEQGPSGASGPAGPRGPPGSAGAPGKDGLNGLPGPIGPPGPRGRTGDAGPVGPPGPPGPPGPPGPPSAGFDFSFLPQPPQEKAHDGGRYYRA
T1 sequence (P08123 80-1119 limits assumed, chain 2 of 2): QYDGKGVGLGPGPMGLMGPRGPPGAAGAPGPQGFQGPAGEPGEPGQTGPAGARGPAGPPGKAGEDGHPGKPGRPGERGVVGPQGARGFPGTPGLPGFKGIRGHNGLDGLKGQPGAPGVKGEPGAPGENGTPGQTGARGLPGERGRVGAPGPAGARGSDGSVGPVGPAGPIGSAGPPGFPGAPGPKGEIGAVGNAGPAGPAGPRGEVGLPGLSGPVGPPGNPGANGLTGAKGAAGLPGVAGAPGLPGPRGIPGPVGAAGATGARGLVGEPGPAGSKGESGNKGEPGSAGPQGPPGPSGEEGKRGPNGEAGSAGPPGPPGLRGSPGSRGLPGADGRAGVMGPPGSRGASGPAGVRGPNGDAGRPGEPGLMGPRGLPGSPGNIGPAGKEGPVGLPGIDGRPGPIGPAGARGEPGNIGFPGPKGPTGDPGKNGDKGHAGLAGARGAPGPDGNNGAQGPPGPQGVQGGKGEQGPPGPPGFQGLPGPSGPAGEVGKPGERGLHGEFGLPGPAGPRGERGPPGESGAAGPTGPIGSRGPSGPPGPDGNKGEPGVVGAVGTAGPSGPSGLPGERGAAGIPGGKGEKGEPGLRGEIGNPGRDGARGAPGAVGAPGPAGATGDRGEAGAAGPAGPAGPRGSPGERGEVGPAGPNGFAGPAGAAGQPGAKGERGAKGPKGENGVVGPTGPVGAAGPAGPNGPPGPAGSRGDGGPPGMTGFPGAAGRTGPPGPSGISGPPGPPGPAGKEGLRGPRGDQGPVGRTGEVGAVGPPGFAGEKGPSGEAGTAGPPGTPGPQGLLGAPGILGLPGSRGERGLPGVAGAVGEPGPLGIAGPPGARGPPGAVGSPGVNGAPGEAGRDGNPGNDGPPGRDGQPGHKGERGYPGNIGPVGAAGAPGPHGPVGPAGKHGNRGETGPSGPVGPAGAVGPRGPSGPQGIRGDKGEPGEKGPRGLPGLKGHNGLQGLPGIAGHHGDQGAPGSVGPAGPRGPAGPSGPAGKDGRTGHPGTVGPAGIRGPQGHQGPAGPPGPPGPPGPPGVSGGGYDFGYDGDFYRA

[2] = biological target: T2, rat collagen, acid soluble, type I, rat tail (Upstate 08-115) (rat, UniProt P02454 152-1207; P02466 86-1125); assay: dried collagen assay
T2 construct: tissue extract, gelled and dried in wells; also called dried rat collagen
T2 sequence (P02454 152-1207, chain 1 of 2): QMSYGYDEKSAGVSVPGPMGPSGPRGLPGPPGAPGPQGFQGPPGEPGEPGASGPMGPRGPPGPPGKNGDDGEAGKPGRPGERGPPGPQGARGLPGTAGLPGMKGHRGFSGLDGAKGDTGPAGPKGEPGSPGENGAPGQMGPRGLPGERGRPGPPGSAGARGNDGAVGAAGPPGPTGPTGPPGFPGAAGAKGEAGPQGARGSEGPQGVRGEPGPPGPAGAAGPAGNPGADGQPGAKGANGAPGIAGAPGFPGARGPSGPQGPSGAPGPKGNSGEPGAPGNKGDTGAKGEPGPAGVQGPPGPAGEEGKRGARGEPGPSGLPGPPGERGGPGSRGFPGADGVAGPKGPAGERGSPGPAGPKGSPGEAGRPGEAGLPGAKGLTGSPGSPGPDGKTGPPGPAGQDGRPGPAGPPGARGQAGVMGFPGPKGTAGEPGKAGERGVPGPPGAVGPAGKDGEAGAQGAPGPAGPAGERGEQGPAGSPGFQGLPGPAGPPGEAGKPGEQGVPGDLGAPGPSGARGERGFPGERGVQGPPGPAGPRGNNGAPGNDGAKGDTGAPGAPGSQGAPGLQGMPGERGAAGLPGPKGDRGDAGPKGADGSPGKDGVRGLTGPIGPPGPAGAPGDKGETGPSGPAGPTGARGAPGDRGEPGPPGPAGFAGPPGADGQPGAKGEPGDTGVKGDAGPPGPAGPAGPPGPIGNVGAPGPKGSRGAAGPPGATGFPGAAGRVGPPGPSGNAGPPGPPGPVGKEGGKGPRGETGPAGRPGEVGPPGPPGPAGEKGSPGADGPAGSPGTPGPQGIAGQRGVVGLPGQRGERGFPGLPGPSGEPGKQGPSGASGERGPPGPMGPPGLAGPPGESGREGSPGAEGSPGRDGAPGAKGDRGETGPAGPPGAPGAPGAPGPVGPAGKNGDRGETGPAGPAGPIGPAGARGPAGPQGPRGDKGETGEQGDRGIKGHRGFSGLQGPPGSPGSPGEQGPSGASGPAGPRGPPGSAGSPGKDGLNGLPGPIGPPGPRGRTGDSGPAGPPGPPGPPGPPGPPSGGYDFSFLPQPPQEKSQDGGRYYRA
T2 sequence (P02466 86-1125, chain 2 of 2): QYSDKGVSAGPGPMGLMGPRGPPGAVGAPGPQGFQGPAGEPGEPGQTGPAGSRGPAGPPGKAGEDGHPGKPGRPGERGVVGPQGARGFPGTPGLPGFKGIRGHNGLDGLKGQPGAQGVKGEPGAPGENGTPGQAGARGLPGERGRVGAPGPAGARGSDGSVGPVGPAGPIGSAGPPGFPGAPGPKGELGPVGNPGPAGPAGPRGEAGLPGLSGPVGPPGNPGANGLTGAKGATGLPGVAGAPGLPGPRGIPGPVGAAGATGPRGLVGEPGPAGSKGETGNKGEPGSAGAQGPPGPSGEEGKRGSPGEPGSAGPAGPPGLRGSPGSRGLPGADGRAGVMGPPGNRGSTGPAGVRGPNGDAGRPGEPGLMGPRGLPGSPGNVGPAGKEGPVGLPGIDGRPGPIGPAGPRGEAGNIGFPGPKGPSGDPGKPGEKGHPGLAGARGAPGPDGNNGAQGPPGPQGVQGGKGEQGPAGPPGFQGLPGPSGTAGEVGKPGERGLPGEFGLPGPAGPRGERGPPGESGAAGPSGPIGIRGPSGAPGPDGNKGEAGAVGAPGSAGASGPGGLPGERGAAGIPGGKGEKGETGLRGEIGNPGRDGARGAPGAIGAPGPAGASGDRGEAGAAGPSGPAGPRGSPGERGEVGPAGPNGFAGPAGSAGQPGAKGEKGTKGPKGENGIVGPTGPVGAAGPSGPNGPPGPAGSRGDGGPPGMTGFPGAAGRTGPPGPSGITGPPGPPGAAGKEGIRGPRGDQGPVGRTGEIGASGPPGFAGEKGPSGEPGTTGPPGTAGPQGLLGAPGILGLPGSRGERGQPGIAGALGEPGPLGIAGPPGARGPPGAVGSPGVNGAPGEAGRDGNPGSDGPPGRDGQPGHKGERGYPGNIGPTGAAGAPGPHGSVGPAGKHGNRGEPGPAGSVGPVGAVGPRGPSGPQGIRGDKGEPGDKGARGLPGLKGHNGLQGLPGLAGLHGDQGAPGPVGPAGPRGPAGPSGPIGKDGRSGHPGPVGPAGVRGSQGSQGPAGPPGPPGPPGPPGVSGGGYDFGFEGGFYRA

Row | Binder | % bound [1] | % bound [2]
1 | {Gd^T(3)}-GQWH[Pen]TTRFPHHYCLYG (disulfide 5-14; not fully specified (C-terminus)) [Compound ID 896] | 50% | 41%
2 | {Gd^T″}-PPWHCTTLFPHH[dY]CLYG (disulfide 5-14 (inferred); not fully specified (C-terminus)) [Compound ID 912] | 20% | 0%
3 | {Gd^G}-GQWTCSGDEYTWHCNY (disulfide 5-14 (inferred); not fully specified (C-terminus); reading uncertain) [Compound ID 823] | 53% | 28%
4 | {Gd^T″}-GQWHCTTDFPHHYCL[Bpa]G (disulfide 5-14) [Compound ID 889] | 38% | 19%
5 | {Gd^T}-GQWHCTTR[1Nal]PHHYCLYG (disulfide 5-14; not fully specified (C-terminus); reading uncertain) [Compound ID 860] | 60% | 45%
6 | {Gd^T″}-GQWHCTTD[Bpa]PHHYCLYG (disulfide 5-14) [Compound ID 882] | 0% | 13%
7 | {Gd^T(3)}-GQWHCTTD[2Nal]PHHYCLYG (disulfide 5-14; not fully specified (C-terminus)) [Compound ID 894] | 20% | 15%
8 | {Gd^T″}-GQWHCTT[Tyr(3-Cl)]FPHH[dY]CLYG (disulfide 5-14 (inferred); not fully specified (C-terminus)) [Compound ID 916] | 23% | 0%
9 | {Gd^T″}-GQWHCTTDFPH[2Pal]YCLYG (disulfide 5-14) [Compound ID 888] | 38% | 30%
10 | {Gd^T(3)}-GQWHCTTDFPHHYCL[2Nal]G (disulfide 5-14) [Compound ID 891] | 79% | 70%
11 | {Gd^T″}-GQWHCTTR[Bip]PHHYCLYG (disulfide 5-14) [Compound ID 881] | 19% | 28%
12 | {Gd^T″}-GQWHCTTDFPH[Dap](Gd^T″)YCLYG (disulfide 5-14) [Compound ID 887] | 0% | 16%
13 | {Gd^T}-PPQWHCTTRFPHHYCLYG (disulfide 6-15 (inferred); not fully specified (C-terminus); reading uncertain) [Compound ID 854] | 64% | 56%
14 | {Gd^T(3)}-GQWHCTTRFPHHYC[hPhe]YG (disulfide 5-14) [Compound ID 932] | 59% | 79%
15 | GQWTCSGDAYTWHCNYE (disulfide 5-14 (inferred); not fully specified (N-terminus, C-terminus)) [Compound ID 838] | 70% | 61%
16 | {Gd^T}-GQWTCSGDEYTWHCNYA (disulfide 5-14 (inferred); not fully specified (C-terminus); reading uncertain) [Compound ID 841] | 51% | 28%
17 | {Gd^T″}-GQ[2Nal]HCTTRFPHHYCLYG (disulfide 5-14) [Compound ID 872] | 41% | 35%
18 | {Gd^T″}-GQWHCTTRFPHH[1Nal]CLYG (disulfide 5-14) [Compound ID 867] | 55% | 48%
19 | {Gd^T(3)}-GQWHCTTLFPHH[1Nal]CLYG (disulfide 5-14; not fully specified (C-terminus)) [Compound ID 913] | 78% | 64%
20 | GQWHCTTYFPHHYCLYG-{AEEA-Gd^G} (disulfide 5-14 (inferred); reading uncertain, no N-terminal chelate printed) [Compound ID 874] | 45% | 28%
21 | {Gd^T″}-AWHCTTLFPHH[dY]CLYG (disulfide 4-13 (inferred); not fully specified (C-terminus)) [Compound ID 909] | 14% | 0%
22 | {Gd^T″}-GQWHCTTRFPHHYCLYGK(Gd^T″) (disulfide 5-14 (inferred); not fully specified (C-terminus)) [Compound ID 807] | 48% | 45%
23 | {Gd^T″}-GQWHCTTYFPHH[dY]CLYG (disulfide 5-14 (inferred); not fully specified (C-terminus)) [Compound ID 914] | 19% | 0%
24 | {Gd^T″}-GK([Gly-Gd^T″])WHCTTK(Gd^T″)FPHHYCLY[Bip] (disulfide 5-14; not fully specified (C-terminus), also called Comp ID No:800) [Compound ID 800] | 85% | 88%
25 | {Gd^T″}-GQWTCYGDEYTWYCNYE (disulfide 5-14 (inferred); not fully specified (C-terminus)) [Compound ID 826] | 87% | 71%
26 | GQWHCTTYFPHHYCLYG (disulfide 5-14 (inferred); not fully specified (N-terminus)) [Compound ID 919] | 93% | 93%

More lines, now with the values ahead:

Row | % bound [1] | % bound [2] | Binder
27 | 36% | 40% | {Gd^T″}-GQ[Bta]HCTTRFPHHYCLYG (disulfide 5-14) [Compound ID 868]
28 | 25% | 19% | {Gd^T″}-GQWHCTTRFPHHYCLYG[dK](Gd^T″) (disulfide 5-14 (inferred); not fully specified (C-terminus)) [Compound ID 808]
29 | 64% | 42% | {Gd^T}-DWTC[4Pal]GDEYTWHCNYE (disulfide 4-13; not fully specified (C-terminus); reading uncertain) [Compound ID 849]
30 | 38% | 33% | {Gd^T″}-GQWHCTTRFPHH[Bip]CLYG (disulfide 5-14) [Compound ID 873]
31 | 52% | 42% | {Gd^T}-PPQWHCTTRF[Hyp]HHYCLYG (disulfide 6-15; not fully specified (C-terminus); reading uncertain) [Compound ID 856]
32 | 19% | 0% | {Gd^T(3)}-GQWHCTT[Cha]FPHH[dY]CLYG (disulfide 5-14; not fully specified (C-terminus)) [Compound ID 918]
33 | 64% | 60% | {Gd^T″}-GK([Gly-Gd^T″])QWHCTTYFPHHYCLYG (disulfide 6-15 (inferred)) [Compound ID 875]
34 | 30% | 11% | {Gd^T}-GQWTCSGDEYTWHCAYE (disulfide 5-14 (inferred); not fully specified (C-terminus); reading uncertain) [Compound ID 839]
35 | 73% | 79% | {Gd^T}-GQWHCTTYFPHHYCLYG (disulfide 5-14 (inferred); not fully specified (C-terminus); reading uncertain) [Compound ID 861]
36 | 78% | 79% | {Gd^T(3)}-GK([Gly-Gd^T(3)])WHCTTYFPHHYCLY[Bip] (disulfide 5-14) [Compound ID 950]
37 | 53% | 55% | {Gd^T(3)}-K(Gd^T(3))K(Gd^T(3))WHCTTK(Gd^T(3))FPHHYCLY[Bip] (disulfide 5-14 (inferred)) [Compound ID 997]
38 | 64% | 62% | Cbz-GQWHCTTRFPHHYCLYGK (disulfide 5-14 (inferred); not fully specified (residue 18)) [Compound ID 925]
39 | 75% | 67% | {Gd^T}-DWTCSGDEYTWHCNY[Aib] (disulfide 4-13; not fully specified (C-terminus); reading uncertain) [Compound ID 850]
